Source: patent US20250295799A1 (Zymeworks, published 2025)
Positions count from the first letter of the chain named.

B1: v40203, H18L6_LC_G34D mAb (antibody, human IgG1, kappa, V domains shown)
VH: QVQLVQSGAEVKKPGSSVKVSCKASGYTFTDYEMHWVKQAPGHGLEWIGAIDPETGDTAYNQKFKGKATLTADTSTSTAYMELSSLRSEDTAVYYCTRYFSFAYWGQGTLVTVSS
VL: EIVLTQSPATLSLSPGERATISCRSSQSLRHSNDNTYLQWYQQKPGQAPRLLIYKVSNRFSGVPARFSGSGSGTDFTLTISSLEPEDFAVYFCYQSKHVPYTFGGGTKVEIKR
B2: v40208, H18L6_LC_G34Q mAb (antibody, human IgG1, kappa, V domains shown)
VH: B1 VH
VL: B1 VL with D34Q
B3: v40209, H18L6_LC_G34T mAb (antibody, human IgG1, kappa, V domains shown)
VH: B1 VH
VL: B1 VL with D34T
notes: no number given for this variant
B4: v40207, H18L6_LC_G34K mAb (antibody, human IgG1, kappa, V domains shown)
VH: B1 VH
VL: B1 VL with D34K
B5: v40206, H18L6_LC_G34R mAb (antibody, human IgG1, kappa, V domains shown)
VH: B1 VH
VL: B1 VL with D34R
B6: v40204, H18L6_LC_G34E mAb (antibody, human IgG1, kappa, V domains shown)
VH: B1 VH
VL: B1 VL with D34E
notes: as for B3
B7: v40205, H18L6_LC_G34H mAb (antibody, human IgG1, kappa, V domains shown)
VH: B1 VH
VL: B1 VL with D34H
notes: as for B3
B8: v40210, H18L6_LC_G34S mAb (antibody, human IgG1, kappa, V domains shown)
VH: B1 VH
VL: B1 VL with D34S
notes: as for B3
B9: v38592, M3-H18L6 (WT) mAb (antibody, human IgG1, kappa)
heavy: not shown
light: EIVLTQSPATLSLSPGERATISCRSSQSLRHSNGNTYLQWYQQKPGQAPRLLIYKVSNRFSGVPARFSGSGSGTDFTLTISSLEPEDFAVYFCYQSKHVPYTFGGGTKVEIKRTVAAPSVFIFPPSDEQLKSGTASVVCLLNNFYPREAKVQWKVDNALQSGNSQESVTEQDSKDSTYSLSSTLTLSKADYEKHKVYACEVTHQGLSSPVTKSFNRGEC
notes: Same as v37574 but the heavy chain cDNA encodes a C-terminal lysine; also called wild-type M3-H18L6
B10: H18L6_LC_G34H mAb, v40205 (antibody, human IgG1, kappa, V domains shown)
VH: B1 VH
VL: B1 VL with D34H
notes: M3-H18L6 chains with the stated light chain point mutation, IgG1/kappa
B11: H18L6_LC_G34T mAb, v40209 (antibody, human IgG1, kappa, V domains shown)
VH: B1 VH
VL: B1 VL with D34T
notes: as for B10
B12: H18L6_LC_G34V mAb, v40211 (antibody, human IgG1, kappa, V domains shown)
VH: B1 VH
VL: B1 VL with D34V
notes: as for B10
B13: H18L6_LC_N33E mAb, v40213 (antibody, human IgG1, kappa, V domains shown)
VH: B1 VH
VL: B1 VL with N33E, D34G
notes: as for B10
B14: H18L6_LC_G34S mAb, v40210 (antibody, human IgG1, kappa, V domains shown)
VH: B1 VH
VL: B1 VL with D34S
notes: as for B10
B15: codrituzumab (v37575) (antibody, human IgG1, kappa, V domains shown)
VH: QVQLVQSGAEVKKPGASVKVSCKASGYTFTDYEMHWVRQAPGQGLEWMGALDPKTGDTAYSQKFKGRVTLTADKSTSTAYMELSSLTSEDTAVYYCTRFYSYTYWGQGTLVTVSS
VL: DVVMTQSPLSLPVTPGEPASISCRSSQSLVHSNRNTYLHWYLQKPGQSPQLLIYKVSNRFSGVPDRFSGSGSGTDFTLKISRVEAEDVGVYYCSQNTHVPPTFGQGTKLEIKR
notes: also called GC33; RG-7686
B16: H18L6_LC_N33Q mAb, v40220 (antibody, human IgG1, kappa, V domains shown)
VH: B1 VH
VL: B1 VL with N33Q, D34G
notes: as for B10
B17: H18L6_LC_N33S mAb, v40221 (antibody, human IgG1, kappa, V domains shown)
VH: B1 VH
VL: B1 VL with N33S, D34G
notes: as for B10
B18: H18L6_LC_N33T mAb, v40214 (antibody, human IgG1, kappa, V domains shown)
VH: B1 VH
VL: B1 VL with N33T, D34G
notes: as for B10
B19: H18L6_LC_N33D mAb, v40222 (antibody, human IgG1, kappa, V domains shown)
VH: B1 VH
VL: B1 VL with N33D, D34G
notes: as for B10
B20: H18L6_LC_N33R mAb, v40216 (antibody, human IgG1, kappa, V domains shown)
VH: B1 VH
VL: B1 VL with N33R, D34G
notes: as for B10
B21: H18L6_LC_N33K mAb, v40217 (antibody, human IgG1, kappa, V domains shown)
VH: B1 VH
VL: B1 VL with N33K, D34G
notes: as for B10
B22: H18L6_LC_N33H mAb, v40218 (antibody, human IgG1, kappa, V domains shown)
VH: B1 VH
VL: B1 VL with N33H, D34G
notes: as for B10
B23: H18L6_LC_N33A mAb, v40219 (antibody, human IgG1, kappa, V domains shown)
VH: B1 VH
VL: B1 VL with N33A, D34G
notes: as for B10
B24: H18L6_LC_N33V mAb, v40215 (antibody, human IgG1, kappa, V domains shown)
VH: B1 VH
VL: B1 VL with N33V, D34G
notes: as for B10

The binders below were run against T1, recombinant human GPC3 (glypican-3) (human, UniProt P51654 25-559) (assay: SPR (Biacore T200), antibody captured by anti-Fc, GPC3 injected, single-cycle kinetics, 1:1 fit; average).
T1 construct: also called huGPC3; hGPC3
Experimental: (§1) CM5 Series S sensor chip, Biacore™ amine coupling kit (NHS, EDC and 1 M ethanolamine), and 10 mM sodium acetate buffers were purchased from Cytiva Life Sciences (Mississauga, ON, Canada). PBS running buffer with 0.05% Tween20 (PBST) was purchased from Teknova Inc. (Hollister, CA). Antigens: recombinant human and cynomolgus GPC3 was purchased from ACROBiosystems (Newark, DE) and SEC purified on a Superdex 200 10/300 GL column (Cytiva) in PBST running buffer at 0.8 mL/min.
(§2) Screening of the antibodies for binding to GPC3 antigen was conducted via anti-Fc capture of antibodies, followed by the injection of five concentrations of GPC3. The anti-Fc surface was prepared on a CM5 Series S sensor chip by standard amine coupling methods as described by the manufacturer (Cytiva Life Sciences, Mississauga, ON, Canada). […] Approximately 150-400 RUs of each antibody (5-20 μg/mL) were captured on the goat anti-human IgG surface by injecting at 10 μL/min for 60s. Using single-cycle kinetics, five concentrations of a two-fold dilution series of human or cynomolgus GPC3 starting at 40 nM, 20 nM, 10 nM, or 5 nM depending on the antibody, with a blank buffer control were injected at 20 μL/min for 180s of contact time, followed by 180 s dissociation phase, resulting in sensorgrams with a buffer blank reference. The anti-Fc surface was regenerated to prepare for the next injection cycle by one pulse of 10 mM glycine/HCl pH 1.5 for 120 s at 40 μL/min. Blank-subtracted sensorgrams were analyzed and fit to the 1:1 Langmuir binding model using Biacore™ T200 Evaluation Software v3.2.
Wherever JHH-5 Internalization (MFI) is given: test concentration or dose not given here.
Wherever JHH-7 Internalization (MFI) is given: test concentration or dose not given here.

Kd [pM] | Binder
13700 | B1
10600 | B2
11300 | B3
11500 | B4
11900 | B5
14900 | B6
10400 | B7
10300 | B8
7140 | B9

What follows are binders tested against T2, human glypican-3 (GPC3) (human, UniProt P51654 25-554) (assay: flow cytometry on JHH-5 cells (GPC3-mid);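 further: antibody binding to cells at 4 °C for 24 h, detected with anti-human AF647 as geometric mean fluorescence of live cells versus antibody concentration, fitted by specific binding with Hill slope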).
T2 construct: Endogenous on JHH-7, JHH-5, HepG2 and NCI-H446 tumour cells, or transiently expressed on CHO-S cells from a pTT5 plasmid; also called hGPC3; huGPC3
Experimental: (§3) Briefly, cells were seeded at 50,000 cells/well in V-bottom 96-well plates and treated with antibody for 24 hours at 4° C. to prevent internalization. […] Following incubation and washing, fluorescence was detected by flow cytometry on a BD LSRFortessa™ Cell Analyzer (BD Biosciences, Franklin Lake, NJ) with 1,000 minimum events collected per well. AF647/APC-A GeoMean (fluorescence signal geometric mean, proportional to anti-Human AF647 binding) in live cell population was plotted against antibody concentration using GraphPad Prism Version 9 (GraphPad Software, San Diego, CA). The Bmax, Curve Hill Slope (h) and Kd values were derived from the “Specific binding with Hill slope” nonlinear regression curve fit in GraphPad Prism Version 9.

Bmax (MFI) | Kd [pM] | Binder
4580 | 160 | B10
4130 | 110 | B11
2940 | 240 | B12
1940 | 3390 | B13
4140 | 100 | B14
5590 | 190 | B15

These binders were tested against T3, recombinant cynomolgus GPC3 (glypican-3) (cynomolgus monkey, UniProt A0A2K5VK50 24-558) (assay: SPR; Kd on human GPC3 divided by Kd on cynomolgus GPC3).
T3 construct: also called cynoGPC3
Experimental: as §1, §2

Kd Fold difference (hu/cyno) [fold] | Binder
1.2 | B1
1.48 | B2
1.53 | B3
1.58 | B4
1.55 | B5
1.19 | B6
1.19 | B7
1.56 | B8

These binders were tested against T2, human glypican-3 (GPC3) (assay: cell-based or functional assay).

JHH-5 Internalization (MFI) | JHH-7 Internalization (MFI) | Binder
9170 | 7320 | B10
9280 | 9040 | B11
3560 | 3330 | B12
1200 | 1220 | B13
8950 | 8900 | B14
8770 | 6560 | B15

These binders were tested against T3, recombinant cynomolgus GPC3 (glypican-3) (assay: SPR (Biacore T200), antibody captured by anti-Fc, GPC3 injected, single-cycle kinetics, 1:1 fit; average).
Experimental: as §1, §2

Kd [pM] | Binder
11500 | B1
7180 | B2
7430 | B3
7290 | B4
7670 | B5
12500 | B6
8790 | B7
6580 | B8
4540 | B9

Each binder was assayed against T4, cynomolgus monkey glypican-3 (GPC3) (cynomolgus monkey, UniProt A5A6P7 25-554 (Pan troglodytes entry)) (assay: flow cytometry on CHO-S cells transfected with cynomolgus GPC3;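 further: antibodies incubated 24 h at 4 °C with transiently transfected cells, binding read as AF647 geometric mean fluorescence of live cells, GFP-transfected cells as negative control, Hill-slope specific-binding fit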).
T4 construct: Transiently expressed on CHO-S cells; also called cynoGPC3; CynoGPC3-CHO
Experimental: (§4) Briefly, CHO—S cells were transiently transfected for −24 hours with a pTT5-based expression plasmid encoding human GPC3 or cynomolgus monkey GPC3, 0.5 μg DNA per 1 million cells, using the Neon™ Transfection System (Thermo Fisher Scientific Corp., Waltham, MA), to transiently express human or cynomolgus monkey GPC3. Cells transfected with GFP were used as negative transfection controls. Following transfection, cells were seeded at 50,000 cells/well in V-bottom 96-well plates and treated with antibody for 24 hours at 4° C. to prevent internalization. […] Following incubation and washing, fluorescence was detected by flow cytometry on a BD LSRFortessa™ Cell Analyzer (BD Biosciences, Franklin Lake, NJ) with 1,000 minimum events collected per well. AF647/APC-A GeoMean (fluorescence signal geometric mean, proportional to anti-Human AF647 binding) in live cell population was plotted against antibody concentration using GraphPad Prism Version 9 (GraphPad Software, San Diego, CA). The Bmax and Kd values were derived from the “Specific binding with Hill slope” nonlinear regression curve fit in GraphPad Prism Version 9.

Bmax (MFI) | Kd [pM] | Binder
2990 | 140 | B10
2840 | 140 | B11
2640 | 170 | B12
2320 | 220 | B13
2970 | 90 | B14
3280 | 90 | B15

What follows are binders tested against T1, recombinant human GPC3 (glypican-3) (assay: SPR (Biacore T200), antibody captured by anti-Fc, GPC3 injected).
Experimental: as §1, §2

Avg % binding huGPC3 (RU observed/theoretical) [%] | Binder
44.1 | B1
46.3 | B2
43.6 | B3
42.2 | B4
42 | B5
43 | B6
43.5 | B7
42.8 | B8
51.9 | B9

Each binder was assayed against T2, human glypican-3 (GPC3) (assay: flow cytometry on JHH-7 cells (GPC3-high);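 further: antibody binding at 4 °C for 24 h, detected with anti-human AF647 secondary, geometric mean fluorescence of live cells versus antibody concentration, fitted as specific binding with Hill slope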).
Experimental: as §3

Bmax (MFI) | Kd [pM] | Binder
12500 | 430 | B10
7220 | 670 | B16
7220 | 790 | B17
10900 | 420 | B11
9990 | 750 | B18
 | > 47000 | B19
7420 | 400 | B12
9650 | 670 | B20
9230 | 560 | B21
8070 | 770 | B22
7870 | 620 | B23
9540 | 1010 | B24
10600 | 420 | B14
14800 | 310 | B15

Each binder was assayed against T2, human glypican-3 (GPC3) (assay: flow cytometry on CHO-S cells transfected with human GPC3;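 further: antibody binding to transiently transfected CHO-S cells after 24 hours at 4 °C, read as geometric mean fluorescence of anti-human AF647 in live cells, fitted against antibody concentration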).
Experimental: as §4

Bmax (MFI) | Kd [pM] | Binder
2460 | 100 | B10
2320 | 110 | B11
2100 | 110 | B12
1860 | 250 | B13
2360 | 60 | B14
2660 | 80 | B15
